± gives the uncertainty stated by the source.

This data set can be described thus: amyloid nucleation score (Sup35N fusion, yeast selection) (log enrichment); library NNK1; higher = more nucleation; inactive = no reads after selection. The gist of the method: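 The nucleation score equals the log enrichment of output over input reads from DiMSum, centred on the mode score of non-aggregating sequences. It was computed only for sequences with 100 or more input reads. The reads came from Illumina sequencing of plasmid inserts from psi-negative yeast expressing Sup35N fused to peptides of 20 random codons, induced with 100 μM copper sulfate for 24 hours and grown 7 days at 30°C without adenine and uracil.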
Turning to MDTFSIMTYLAWQSNELLLI, the amyloid nucleation score came out at 1.22 ± 0.23. To MDVGIFMIMTVTRWKGCSVI belongs 0.565 ± 0.48; to MEMLGGNRL, 1.23 ± 0.36; to MFDGEIFSYFNCTIV, 5.67 ± 0.051.

Regarding MFEFKKPD, the amyloid nucleation score is -0.015 ± 0.73. MFISIGLPPQRRQDSHGWGG showed an amyloid nucleation score of 0.532 ± 0.37.

The substance MFMHELHMVDP gave an amyloid nucleation score of -0.873 ± 0.77. To MFVFFSTMSIR belongs “inactive”.

In the case of MFVRPRESAEHMLGFRVYSG, the amyloid nucleation score worked out at 0.452 ± 0.37. To MGDFND belongs -1.08 ± 1.4; to MGGSCTSEQYCDWANYGDVL, 0.125 ± 1.4; to MGGTLRNRRGTKVRSELGGD, -0.817 ± 1.7.

In the case of MGSVVHRKVEVHGRFKCGAT, the amyloid nucleation score is 0.477 ± 0.93.

MHGISQPWHKLTMTGIRLAW gave an amyloid nucleation score of -0.463 ± 0.51. To MHRGALSTMQHLHEISLLSC belongs 0.886 ± 0.52; to MIAHLAPINRDAEYFINAIC, -0.236 ± 0.27. Consider MIKSKM, for which the amyloid nucleation score was -0.154 ± 0.61.

On to MIKSPTVKGFRMLCSVRGRD, for which the amyloid nucleation score was -0.284 ± 0.44. To MIVRSVILNDCWAGGACLHF belongs 6.936 ± 0.047; to MKCYVFLKNWMWLVDYLDSI, -0.991 ± 2.4. To MLACDVISPFCYVNWKRLCR belongs 2.43 ± 0.15; to MLFCVTRSVFSENCSLSLCT, “inactive”; to MLFRYRSPHTVWLIRLCMKQ, 0.839 ± 0.56. To MLGCFISFTIKLLG belongs 1.39 ± 0.11.

As to MLGFYKSWCFNFSNMNVH, the amyloid nucleation score was found to be 0.979 ± 0.57.

MLRAGY gave an amyloid nucleation score of -0.292 ± 0.63. MLTQPAEAKEARVSFCSLYM had an amyloid nucleation score of 1.01 ± 0.53. To MLTWCPTSEKVVLLFRSQRG belongs -0.383 ± 1.7; to MLVAFAYFFGSHVRHWGFVW, 0.224 ± 0.33; to MLWRYKRCNFARMFNLRVYV, -0.822 ± 0.65. MLYFRVGVSFGLFVDNFVGF had an amyloid nucleation score of 2.12 ± 0.13. To MLYKIRDQIYIRHGSFEG belongs 0.224 ± 0.28; to MLYPNNKSVVLVVMELRPNA, 0.648 ± 0.52. To MMFLTNCCFMVLNCYTCVRY belongs 3.53 ± 0.066; to MMSEYSYESFHMLII, -2.05 ± 1.4. To MMSFVEKPQGESSSNEWGVN belongs -0.777 ± 2.4; to MMVRGMW, 1.34 ± 0.35.

On to MNCVLIVVPRMTLGNYRSSW, for which the amyloid nucleation score worked out at 5.21 ± 0.053. To MNVTCDGRMGIQVDPVRYNR belongs -0.122 ± 1.4. To MQFLVVLCQCQFLNRVRGCA belongs 1.5 ± 0.35; to MQKYPIRGRR, 1.64 ± 0.23. To MQRLLYACVHYRESAQVSTL belongs 1.93 ± 0.37. MQTVNFVFTRLIFISDFTIQ displayed an amyloid nucleation score of 0.688 ± 0.26.

With MRFGLRYKALALRVFVEMTA, the amyloid nucleation score entry is “inactive”. To MRFSPVPCLNF belongs 0.353 ± 0.43; to MRHRCGHRSVPG, -0.118 ± 0.68; to MRLCPEPASKSDMPFSRDLR, 0.268 ± 1.4. To MRLMVGYRRCFASLVKNVCT belongs -0.963 ± 1.8. To MRLNYGNITLSFGSPMMQTI belongs 0.682 ± 0.15. Take MRMRKNEHYE: the amyloid nucleation score was found to be 0.476 ± 0.46. To MRQQGWYTESTFVMCQFTGG belongs 2.04 ± 0.088. To MRRHLGHLTLESGNHGCLQA belongs “inactive”. To MRVHFLE belongs 0.136 ± 0.41; to MRVTFHYFS, -0.434 ± 1.7; to MRVWKSILFDRSFFVFGLWR, -0.543 ± 0.6. In the case of MSDSRIVTVIVRRQPVSQRS, the amyloid nucleation score is 1.33 ± 0.84.

For the substance MSFTSAY, the amyloid nucleation score is -0.238 ± 0.56.

Take MSGWG: the amyloid nucleation score came to 0.167 ± 0.27.

Turning to MSKINFFVNMAGL, the amyloid nucleation score is 5.19 ± 0.062. To MSLDGD belongs 0.868 ± 0.29. In the case of MSLYTDNWGNKGRTSLNYSS, the amyloid nucleation score was 0.455 ± 0.51. In turn, MSLYYPSFDQPITKRVRLFF returned an amyloid nucleation score of -0.82 ± 1.4. To MSMMLTRIAHTLSESWRTHW belongs -0.09 ± 0.97; to MSQAALLVLGNRFGNNDIVG, -0.078 ± 0.44; to MSQDR, -0.061 ± 0.94. In turn, MSSRQVPGFLMIGSLFARCI returned an amyloid nucleation score of -0.639 ± 0.55. To MSSVLFYYGFNTFEYSDMYM belongs -0.15 ± 0.33; to MSSVNWYANDLLSVLGIGSR, -0.202 ± 1.2; to MSYMCLNRYILVGYCWVQTT, 0.312 ± 0.66.

Regarding MTRVNLKDKHNVRILSFN, the amyloid nucleation score entry is “inactive”. To MTVSRNFDYAKLCEWRRVNR belongs -0.371 ± 0.37; to MVCLVVSFGQCASTVFLFHL, 1.83 ± 0.49.

The substance MVCTYNVRCIEMETRYPRSR had an amyloid nucleation score of 0.791 ± 0.97.

The substance MVDPRVTS displayed an amyloid nucleation score of -0.86 ± 1.1. To MVIHP belongs 3.57 ± 0.087. In the case of MVIPFFLSSLLSL, the amyloid nucleation score is -0.835 ± 0.7. To MVKRRV belongs -0.232 ± 1.2; to MVSDMLVKATVHPMYFMTLW, -0.34 ± 0.32; to MVTDPWISTLSSFHLWGGFM, -0.318 ± 0.93. To MVTEDEERMANLSWHESGAY belongs -1.07 ± 0.74; to MVTGTSHPLQYMLSGSSTKY, -0.436 ± 0.45. To MVVVIIYL belongs 1.53 ± 0.35; to MVYLGECCITFYSFNSYRVM, 4.55 ± 0.053. The substance MWGARLRVWPGYERLSAFNH had an amyloid nucleation score of -0.552 ± 0.44. MWGPHCTRSTTTLVPRARKG registered an amyloid nucleation score of 0.468 ± 0.46. To MWSGDDCSFNDFCYVCDFCK belongs -0.1 ± 0.32. To MYCFLAKDLRVTEKFWRRGS belongs -0.448 ± 0.64.

Turning to MYINGWYWTDGFIVNYQWMG, the amyloid nucleation score came to 0.626 ± 0.55. To MYRMFRSFKFEWYCELWVLS belongs -0.125 ± 0.5; to NADCVTMVYSKLVWLPVEDT, 0.458 ± 0.57; to NAFNHFYPTQPFLVQDCWRR, 0.605 ± 0.72. To NALILRGLVCLSWKLELTHF belongs -0.866 ± 1.9. As for NARWV, the amyloid nucleation score turned out to be 0.613 ± 0.38. To NARYYYQSAIADVI belongs 0.64 ± 0.29; to NCECVFIPMKEPGFYR, -0.357 ± 0.63. To NCIGMFAIDLTKDQFRGDFR belongs 2.73 ± 0.31. Substance NCLCIMSPCLLPCWEWVSYR displayed an amyloid nucleation score of 5.834 ± 0.055.

NCLNAMVWSLLMLTDHLAPQ came in with an amyloid nucleation score of -0.157 ± 0.72. To NCRFRVVVRKSGTLLPVWVP belongs 0.542 ± 1; to NCVTELYDLRGILVRNLCSG, -0.044 ± 0.21. Substance NCVTTNIGFN showed an amyloid nucleation score of 0.124 ± 0.9. Turning to NCYSF, the amyloid nucleation score is 0.055 ± 0.29. To NDEQAVQFNIGETGVSYCFL belongs 0.162 ± 0.77; to NDFLNSFLCPYYIIPDTGRI, -1.04 ± 0.44; to NDFYVLNASFSSRHSYAIRH, 1.1 ± 0.3.

In turn, NDHNNLWVNFVGT returned an amyloid nucleation score of 0.575 ± 0.6. To NDNSVTILVCARVSTNGIFD belongs 3.38 ± 0.11. Turning to NDVRYLLDMDLLASSADYFM, the amyloid nucleation score is -0.732 ± 1.1. With NEFKFKVRTKEFRFEVCLKY, the amyloid nucleation score result is “inactive”.

NELMSYVWQDKPRKYRYLF had an amyloid nucleation score of 1.2 ± 0.13. Substance NESGSARFSPVDSYGFGSGC registered an amyloid nucleation score of -0.894 ± 0.75. To NEWVCLS belongs -0.179 ± 0.36. In turn, NFACVFTSTSRMCRH came in with an amyloid nucleation score of 3.85 ± 0.1.

With NFAYGVNYLSAVKGCFTFAR, the amyloid nucleation score is -0.206 ± 1.5. To NFDNYVLLPLALTC belongs “inactive”; to NFGVSSNLCGGIWIYW, 4.74 ± 0.074. To NFIFVR belongs 0.706 ± 0.53; to NFIQID, “inactive”; to NFLIDTYCVNSFNVTL, 2.67 ± 0.17. As to NGFNKSRAQWFGSVSCSPEG, the amyloid nucleation score worked out at 0.174 ± 1.5. To NGFPTNELLFPALKVCNSRV belongs 0.945 ± 1.1. To NGIMKIEKYG belongs 0.312 ± 0.79; to NGKDFWMSGRYAYVSMHFDR, 1.13 ± 0.31; to NGLCLDDIVRLFVIITSVGP, 0.821 ± 1.1. NGRCKYLRQNIFSVLLIMRR gave an amyloid nucleation score of 0.324 ± 1. To NHFFCGLGNYLSAVFIVIRK belongs -0.159 ± 1.4; to NHLVG, 0.526 ± 1.4; to NHMFPMVVTYLWSCFIIGSV, 2.42 ± 0.37. The substance NIGVCQIFLDTGMGISVFLN yielded an amyloid nucleation score of 6.06 ± 0.08. To NIGYSLAVMSAMMLLHFNFG belongs 2.95 ± 0.082; to NIINLHYKYLVADVWGLKMF, -0.008 ± 0.93. To NIKEKG belongs 0.635 ± 0.44; to NILKNTLAFSVYLISLPLHV, 1.82 ± 0.1; to NINPHLLTISFHWLRPQLAP, -0.745 ± 1.7. Regarding NISCDRGMLG, the amyloid nucleation score entry is “inactive”. To NKFGQSAGYLSTFACAVGIG belongs 0.595 ± 0.39; to NKGALRLRFYGIFEVECVVE, 1.09 ± 0.4. To NKNMSNKFVSIMQKFFSIDG belongs 2.72 ± 0.13; to NKNSGSRHHHVTYQLTPGER, “inactive”. To NKTMGMKSYFLGNIFYMYGW belongs 5.215 ± 0.046.
